Here are results for one substance from patent publication US20130102527A1.

For experiment [1], the target named is caspase-like site (β1 subunit) of yeast 20S proteasome (S. cerevisiae) (UniProt P38624). The experiment can be described thus: cell-based or functional assay.
Experiment [2] addresses chymotrypsin-like site (β5 subunit) of 26S proteasomes purified from rabbit muscle (rabbit) (UniProt G1T4Q9). The experiment can be described thus: cell-based or functional assay.
The target of experiment [3] is trypsin-like site (β2 subunit) of 26S proteasomes purified from rabbit muscle (rabbit) (UniProt G1SWK8). The experiment can be described thus: cell-based or functional assay.
Experiment [4] deals with proteasome β2 subunit (trypsin-like site) in human cells and cell extracts (human) (UniProt Q99436). The experiment can be described thus: competition with activity-based probe in living HEK-293 cells, 4 h; Tr-L site.
Experiment [5] concerns the target proteasome β5 subunit (chymotrypsin-like site) in human cells and cell extracts (human) (UniProt P28074). The experiment can be described thus: competition with activity-based probe in living HEK-293 cells, 4 h; Chym-L site.

A word on the IC50: it is the point on the concentration scale where inhibition reaches its midpoint.

Chain of trypsin-like site (β2 subunit) of 26S proteasomes purified from rabbit muscle (rabbit) (G1SWK8 entry or part of it): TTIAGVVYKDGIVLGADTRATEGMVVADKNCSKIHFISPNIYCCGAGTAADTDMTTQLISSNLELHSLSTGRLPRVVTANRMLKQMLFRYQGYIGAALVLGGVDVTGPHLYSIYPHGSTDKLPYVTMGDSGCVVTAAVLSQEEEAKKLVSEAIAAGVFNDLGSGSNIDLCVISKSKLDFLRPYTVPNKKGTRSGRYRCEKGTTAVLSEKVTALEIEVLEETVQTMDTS
Chain of proteasome β5 subunit (chymotrypsin-like site) in human cells and cell extracts (human) (P28074 60-263): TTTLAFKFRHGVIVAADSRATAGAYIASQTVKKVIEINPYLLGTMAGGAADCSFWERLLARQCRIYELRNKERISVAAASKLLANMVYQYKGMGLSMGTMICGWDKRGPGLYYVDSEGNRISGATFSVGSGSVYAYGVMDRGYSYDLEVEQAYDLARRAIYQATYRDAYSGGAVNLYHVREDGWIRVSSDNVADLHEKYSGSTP
Chain of proteasome β2 subunit (trypsin-like site) in human cells and cell extracts (human) (Q99436 44-277): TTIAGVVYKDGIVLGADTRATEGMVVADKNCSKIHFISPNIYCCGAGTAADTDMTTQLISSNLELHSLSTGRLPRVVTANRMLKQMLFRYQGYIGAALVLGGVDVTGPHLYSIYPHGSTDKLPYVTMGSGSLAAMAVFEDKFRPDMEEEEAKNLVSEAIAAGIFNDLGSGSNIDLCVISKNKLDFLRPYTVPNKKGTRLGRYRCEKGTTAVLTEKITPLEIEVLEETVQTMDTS
Chain of chymotrypsin-like site (β5 subunit) of 26S proteasomes purified from rabbit muscle (rabbit) (G1T4Q9 entry or part of it): as the sequence (P28074 60-263) above, with E197D counted along it
Chain of caspase-like site (β1 subunit) of yeast 20S proteasome (S. cerevisiae) (P38624 20-215): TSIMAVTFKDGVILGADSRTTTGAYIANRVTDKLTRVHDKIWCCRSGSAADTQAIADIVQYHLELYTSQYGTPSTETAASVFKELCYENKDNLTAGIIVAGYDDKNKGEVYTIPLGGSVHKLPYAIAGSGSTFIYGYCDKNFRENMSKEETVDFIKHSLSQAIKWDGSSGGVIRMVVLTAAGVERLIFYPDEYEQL

In the case of “N3-Phe-Phe(4-CH2NH2)-Leu-Phe(4-CH2NH2)-VS (52) (peptide)”, in experiment [1], the inhibition of caspase-like sites of yeast 20S proteasome is > 200 µM. Besides, in experiment [2], the IC50 (µM) for sites: Chym-L turned out to be 3.9 µM. This substance registered an IC50 (µM) for sites: Tr-L in experiment [3] of 0.0066 µM. The figures for the half-inhibitory concentration (IC50) in experiment [4] and in experiment [5] were 50 µM and > 50 µM, respectively.
